From publication PMC11910882

Biological target: SlNSP2-GST (Solanum lycopersicum (tomato), UniProt A0A3Q7ITG8 1-487)
Experiment: EMSA

B1: pSlABCG44-WT (dsDNA)
DNA 1: GAGTGAATTTGTTTGGTTCAATTTTGTCC
DNA 2: GGACAAAATTGAACCAAACAAATTCACTC
Q: Does B1 bind?
A: Result: no binding
